Reference: US20060008800A1 (published 2006)

Assays:
[1] = biological target: Ca2+/Calmodulin (UniProt P0DP23 2-149); test: tryptophane fluorescence, 10 µM peptide, equimolar Calmodulin, excess calcium
[2] = biological target: Apocalmodulin (Calcium-free Calmodulin) (UniProt P0DP23 2-149); test: tryptophane fluorescence, 10 µM peptide, equimolar Apocalmodulin, 1 mM EGTA

binding result [1]: binds | binding result [2]: binds
B1: Munc13-1 peptide reflecting the Calmodulin binding site of rat Munc13-1 (peptide)
peptide: CRAKANWLRAFNKVRMQLQEAR
notes: Synthesized and purified by standard procedures; used at 10 uM in the tryptophane fluorescence assay; also called peptide 13-1; Munc13-1 derived peptide
